Laboratory results taken from article PMC10234635.

Molecular target: recombinant mouse CD47 antigen (mouse) (UniProt Q61735)
Experiment: SPR

UniProt Q61735, sequence (Q61735 19-303): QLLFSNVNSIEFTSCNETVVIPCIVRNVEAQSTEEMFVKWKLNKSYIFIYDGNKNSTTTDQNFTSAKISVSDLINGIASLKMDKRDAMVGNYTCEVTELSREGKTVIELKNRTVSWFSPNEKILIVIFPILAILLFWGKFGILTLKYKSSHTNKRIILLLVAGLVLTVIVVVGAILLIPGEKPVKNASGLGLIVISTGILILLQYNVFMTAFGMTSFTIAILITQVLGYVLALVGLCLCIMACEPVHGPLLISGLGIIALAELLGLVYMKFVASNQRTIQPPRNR

- fold lower affinity than its affinity to CTLA-4: 10 fold
- fold reduction in affinity against SIRPα-Fc: 5 fold
B1: anti–CTLA-4×SIRPα heterodimer (bispecific antibody, V domains shown)
VH: QVKLEESGPGLVNPSQSLSLSCSVTGYSITSGYGWNWIRQFPGQKVEWMGFIYYEGSTYYNPSIKSRISITRDTSKNQFFLQVNSVTTEDTATYYCARQTGYFDYWGQGTMVTVSS
VL: DVMMTQSPSSMSVSAGEKATISCKSSQSLFNSNAKTNYLNWYMQKPGQSPKLLTYYASTRHTGVPDRFRGSGSGTDFTLTISSVQDEDQAFYYCQQWYDYPYTFGAGTKLEIK
